One series concerns the target T1, EHD2 (Mus musculus, UniProt Q8BH64).
T1 construct: Mouse EHD2 full-length protein and all mutants were expressed as N-terminal His-fusions followed by a PreScission cleavage site; His (N, cleaved yes); made in house; host or cells: Escherichia coli BL21 DE3 Rosetta
T1 sequence (Q8BH64 1-543): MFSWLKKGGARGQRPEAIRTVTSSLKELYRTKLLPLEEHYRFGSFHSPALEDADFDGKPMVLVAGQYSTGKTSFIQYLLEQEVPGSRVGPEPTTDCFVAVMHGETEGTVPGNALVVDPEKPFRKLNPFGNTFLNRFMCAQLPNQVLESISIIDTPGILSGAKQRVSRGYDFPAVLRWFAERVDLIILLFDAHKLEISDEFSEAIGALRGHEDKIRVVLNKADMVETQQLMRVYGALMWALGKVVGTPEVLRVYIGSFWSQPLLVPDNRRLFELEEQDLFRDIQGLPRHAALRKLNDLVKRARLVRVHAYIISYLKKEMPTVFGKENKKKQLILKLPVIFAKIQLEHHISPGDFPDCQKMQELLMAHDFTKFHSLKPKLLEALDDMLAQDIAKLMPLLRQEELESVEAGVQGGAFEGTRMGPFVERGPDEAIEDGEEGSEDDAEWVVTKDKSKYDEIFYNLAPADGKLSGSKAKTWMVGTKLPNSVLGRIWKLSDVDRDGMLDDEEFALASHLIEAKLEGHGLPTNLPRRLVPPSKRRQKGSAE
Briefly: Multiple turnover ATPase assay (nucleotide hydrolysis by HPLC) with or without Folch liposomes. The format is biochemical. The conditions noted are these: for kobs stimulated ATPase reaction: presence of 1 mg/ml Folch (or PS) liposomes; for membrane-stimulated ATPase activity (in words): presence of Folch liposomes. Summed up: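 10 μM EHD2 with 100 μM ATP in 20 mM HEPES pH 7.5, 135 mM NaCl, 15 mM KCl, 1 mM MgCl2 at 30 °C, with or without 1 mg/ml Folch liposomes. Reactions started by protein addition; hydrolysis tracked by HPLC, initial rates from linear fit up to 40% hydrolysis.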

Series [1] can be described thus: Liposome co-sedimentation (membrane binding) assay. The conditions noted are these: Folch / PS liposomes. The procedure:
(§1) Amino acid numbering corresponds to mouse EHD2. b, EHD2 binds to adenine nucleotides, as determined by ITC. For clarity, ΔΔH=ΔHn−ΔH1 is plotted. […] Images were acquired close to the basal cell surface. f, Nucleotide hydrolysis was measured by HPLC in the absence (empty symbols) or presence of Folch liposomes (filled symbols). Data represent mean and standard deviation for two (intrinisic reactions) or three (stimulated reactions) independent experiments.
(§2) Nucleotide hydrolysis was measured as described in FIG. 1f. In vitro tubulation activity of PS liposomes was analysed as described in FIG. 1d. f, EGFP-tagged mutants were over-expressed in HeLa cells. […] For each construct, three independent experiments with ≈50 cells/experiments were analysed.
ITC measurements were performed at 10° C. in 20 mM HEPES (pH 7.5), 300 mM NaCl, 2 mM MgCl2. Liposome binding assays were performed as described previously (www.endocytosis.org). Multiple turnover ATPase assays were performed in 20 mM HEPES (pH 7.5), 135 mM NaCl, 15 mM KCl, 1 mM MgCl2 at 30° C. with 10 μM EHD2 (or mutants) as enzyme and 100 μM ATP as substrate, in the absence or presence of 1 mg/ml Folch liposomes (Sigma-Aldrich).
Mouse full-length EHD2 was expressed in bacteria and purified to homogeneity (FIG. 5). The purified protein was nucleotide-free as judged by HPLC analysis. […] It was previously reported that EHDs—despite having a predicted G-domain—bind to adenine nucleotides^15. […] We still refer to this domain as a G-domain because the sequence and fold (see below) are clearly similar to other G-domains. […] Using synthetic liposomes containing various different phosphatidyl-inositols (PI) (FIG. 1c) we observed best binding to liposomes containing PI(4,5)bisphosphate (PIP2).

Series [2] in a line: Negative stain EM of liposome tubulation/oligomerisation. The conditions noted are these: 2.5 μM protein, PS liposomes. The procedure: as §1
EHD2 was incubated with the indicated liposomes in the presence and absence of nucleotides and analysed by EM as described in Methods. a, EHD2 deformed PS liposomes into tubular networks, here in the presence of ATP-γ-S. b, Enlarged views of the indicated area in a. Note the presence of regularly spaced EHD2 rings (some are indicated with arrows). This even spacing may be due to the curvature stress generated by an EHD2 ring along the axis of the lipid tubule which might disfavour binding of the next ring in the direct vicinity (see below). c, Some of the lipid tubules (especially at higher protein concentration) were tightly packed with EHD2 oligomeric rings. d,e In the presence of ADP and in the absence of nucleotide (f,g), EHD2 also tubulated PS liposomes and formed ring-like structures around the tubules. e,g are enlarged views of the indicated areas in d and f, respectively.
Reactions were started by the addition of the protein to the final reaction mix and nucleotide hydrolysis was followed using standard HPLC measurement^27. Initial rates were determined by applying a linear fit to data points up to 40% nucleotide hydrolysis. For electron microscopic studies, 2.5 μM EHD2 in 20 mM HEPES (pH 7.5), 150 mM NaCl, 1 mM MgCl2 was incubated for 15 min at 25° C. in the presence of 1 mM nucleotide and 0.05 mg/ml (final concentration) of the indicated liposomes. Samples were spotted on carbon-coated copper grids (Canemco and Marivac) and negatively stained with 2% uranyl acetate.
Nucleotide-independence of liposome tubulation in vitro is also observed for dynamin^16. No noticeable tubule fission or alteration in tubule diameter was found for EHD2 in the presence of ATP. […] Folch liposomes were also tabulated by EHD2. However, with synthetic liposomes containing only 2.5% PIP2 and in the absence of PS, the amount of EHD binding was reduced, and in this less favourable binding condition we only observed tubulation in the presence of ATP-γ-S and ADP but not in the absence of nucleotides (FIG. 7).

Another series concerns HeLa cells. The experiment in a line: Over-expression of EGFP-tagged EHD2 and mutants in HeLa cells (confocal / live imaging). The format is cell-based. The conditions noted are these: for distribution of EGFP-tagged protein over-expressed in HeLa cells: 24 h after transfection, fixed; for dynamics of tubules and puncta by EPI-fluorescence live imaging: over-expressed 24 h, imaged approximately 30 min. The procedure: as §1, §2
Ultracentrifugation. Sedimentation velocity experiments were performed in a Beckman Optima XLA ultracentrifuge, using an An-60Ti rotor. Centrifugation was at 50,000 rev×min and 5° C. at an EHD2 concentration of 15 μM, with scans as fast as possible (˜1.5 min intervals). The data were analysed using DCDT+ v.2^44,45, with the partial specific volume for the protein (from the amino acid composition) and solvent density and viscosity calculated using Sednterp^46. Selected scans (at equal, ˜15 min intervals), and of g(s20,w) (the amount of material sedimenting between s20,w and (s20,w+δs)) and also the residuals for fitting the data with DCDT+, were plotted with the program profit v.5.6.7 (Quantum soft, Switzerland). Cell biology. N-terminal EGFP-tagged EHD2 and all mutants were over-expressed in HeLa cells from the pEGFP-C3 vector (Clontech). HeLa cells were grown as per ECACC guidelines with 10% fetal bovine serum and transfected using Genejuice (Novagen) for transient protein expression. 24 h after transfection, cells were fixed for 10 min at 37° C. in 3% paraformaldehyde and mounted. All confocal images were taken sequentially using a BioRad Radiance system and LaserSharp software (Biorad). For real-time microscopy, transfected cells on glass-bottom Petri dishes (WillCo Wells BV, Amsterdam) were washed with 25 mM HEPES (pH 7.5), 125 mM NaCl, 5 mM KCl, 10 mM D-glucose, 1 mM MgCl2, 2 mM CaCl), and epifluorescence images were taken using an Olympus IX70 microscope (Southhall, UK) and Argon laser (Melles Griot, Carlsbad, Calif.) with a Princeton instruments (Trenton, N.J.) cooled I-PentaMAX camera with MetaMorph software (Universal imaging).
EHD2 wild-type was over-expressed in HeLa cells for 24 h and imaged by EPI-fluorescence for approximately 30 min.
EHD2 T94A was over-expressed in HeLa cells for 24 h and imaged by EPI-fluorescence for approximately 30 min. […] EHD2 I157Q was over-expressed in HeLa cells for 24 h and imaged by EPI-fluorescence for approximately 30 min.

Series [3] concerns Q8BH64.
The target in series [4] is T2, isolated EH-domain of EHD2 (mouse, UniProt Q8BH64 443-543, limits assumed).
T2 construct: domain: EH-domain; ITC buffer contained 200 µM CaCl2
T2 sequence (looked up): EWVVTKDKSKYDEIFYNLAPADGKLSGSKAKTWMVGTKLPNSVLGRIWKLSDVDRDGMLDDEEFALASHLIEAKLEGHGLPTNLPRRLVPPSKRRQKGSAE
The experiment in a line: ITC at 10 °C, peptide against the EH-domain of EHD2.

The target in series [5] is Q8BH64. The source holds these as a separate data set.
In series [6] the target is T2, isolated EH-domain of EHD2. The experiment in a line: ITC at 10 °C, 100 mM HEPES pH 7.5, 50 mM NaCl, 200 µM CaCl2; peptide against the EH-domain of EHD2.

Residue numbers refer to the chain shown, from its start. Names may count otherwise. “Also recorded” adds a separate entry of the source. Read-outs that look alike come from different tables or passages of the source.

For the molecule “EHD2: mouse full-length EHD2 expressed in bacteria; EGFP-tagged in HeLa cells”, the “kobs intrinsic/background ATPase activity” value with EHD2 (10 μM protein, 100 μM ATP, 30° C., absence of liposomes) is 0.7 h⁻¹. Moreover, in the series with EHD2 (10 μM protein, 100 μM ATP, 30° C.), the “kobs stimulated ATPase reaction” value worked out at 5.6 h⁻¹. Moreover, the “kobs stimulated ATPase reaction” value with EHD2 (10 μM protein, 100 μM ATP, 30° C., listed as wt) is 5.4 h⁻¹. The “stimulation of intrinsic ATP reaction by liposomes” value with EHD2 (Folch or PS liposomes versus no liposomes) is listed as 8 fold. Further, the “stimulated nucleotide hydrolysis slower than dynamin” value in the series with EHD2 (stimulated condition, versus dynamin GTP hydrolysis) came out at 600 fold. In series [1], the “binding to liposomes (co-sedimentation)” value is “efficient binding”. For the same molecule, the “liposome tubulation / oligomerisation by EM” value in series [2] was “deforms PS liposomes in a nucleotide-independent manner into 20 nm-diameter tubules”. Moreover, in the series with HeLa cells, the “distribution of EGFP-tagged protein over-expressed in HeLa cells” value is “localised to puncta and tubular networks close to the cell surface; also recorded: marked punctate and tubular structures”; the “dynamics of tubules and puncta by EPI-fluorescence live imaging” value is “Some of the tubules and puncta are dynamic”.
On to “EHD2 deletion mutant of the EH-domain (ΔEH)”, for which, in the series on Q8BH64 [3], the “membrane-stimulated ATPase activity” value was “did not show any membrane-stimulated ATPase activity”.

B1: peptide 118-PEKPFRKL from EHD2 (peptide)
peptide: PEKPFRKL
notes: also called side site KPF peptide
Take B1: in series [4], the binding result is given as “no binding”.

B2: EHD2 double mutant of the two side-site xPF motifs (F122A/F128A) (protein)
chain: T1 sequence (Q8BH64 1-543) with F122A, F128A
As to B2, in the series with Q8BH64 [5], the “membrane-stimulated ATPase activity” value is recorded as “did not show any membrane-stimulated ATPase activity”. Moreover, the “membrane-stimulated ATPase activity (in words)” value with EHD2 is on record as “did not show any membrane-stimulated ATPase activity”; with EHD2 (listed as mutation of the side site xPFs motif), “completely prevented the membrane-stimulated ATPase reaction”. The “liposome tubulation / oligomerisation by EM” value in series [2] is “did not find any regular oligomers on liposomes”.

B3: I157Q: EHD2 mutant with re-introduced catalytic glutamine in the active site (protein, UniProt Q8BH64 1-543, looked up, variant I157Q)
EH domain-containing protein 2: T1 sequence (Q8BH64 1-543) with I157Q
On to B3, for which the “intrinsic/basal ATPase activity (in words)” value in the series with EHD2 (absence of membranes) is recorded as “hydrolysed ATP faster than wild-type”. In addition, the “membrane-stimulated ATPase activity (in words)” value with EHD2 is given as “not further stimulated by membranes”. In series [2], the “liposome tubulation / oligomerisation by EM” value is “tubulated liposomes”. Moreover, in the series with HeLa cells, the “distribution of EGFP-tagged protein over-expressed in HeLa cells” value was “exclusively punctate staining; also recorded: labelled only very short tubules and puncta”; the “dynamics of tubules and puncta by EPI-fluorescence live imaging” value was “No tubules can be found and the puncta are mostly motile”.

B4: peptide 418-RMGPFVER from EHD2 (peptide)
peptide: RMGPFVER
notes: also called top site GPF peptide
For B4, the binding result in series [4] is “no binding”.

B5: peptide 124-KLNPFGNT from EHD2 (peptide)
peptide: KLNPFGNT
notes: also called side site NPF peptide
In general, Kd refers to the constant that tells how readily two partners part at equilibrium. B5: binding in series [6] was put at a Kd of 130 µM.
